Experimental data reported in patent US8273710B2, “Protein hydrolysate enriched in peptides inhibiting DPP-IV and their use” (Campina Nederland Holding B.V., priority 2004, dated 2012).

Target: T1, DPP-IV (Sus scrofa, UniProt P22411)
Assay: not given
Conditions: additional peptides
Source text: About 40 protein hydrolysates were subjected to on-line liquid chromatography (LC)-biochemical detection (BCD)-mass spectrometry (MS), a method that allowed for separation of crude extract by HPLC, after which the presence of bioactive compounds was detected by means of an on-line biochemical assay. This method for on-line fractionation and characterisation has extensively been described by Van Elswijk et al. (J Chromatography A (2003) 1020:45-58).
A variety of protein hydrolysates prepared according to example 2 were further investigated for DPP-IV inhibiting activity. Hydrolysed protein samples were analysed for DPP-IV inhibitory activity in a high-resolution screening (HRS) instrument, as discussed in Van Elswijk et al. (supra).
DPP-IV inhibition was monitored via the substrate conversion based bioassay format as disclosed in example 1. In addition to the DPP-IV inhibitory activity data, chemical information was obtained in real-time by allowing part of the HPLC effluent to be directed towards a mass spectrometer. […] The assay conditions applied ensured maximum enzyme activity by applying substrate saturation.

T1 sequence (P22411 whole entry): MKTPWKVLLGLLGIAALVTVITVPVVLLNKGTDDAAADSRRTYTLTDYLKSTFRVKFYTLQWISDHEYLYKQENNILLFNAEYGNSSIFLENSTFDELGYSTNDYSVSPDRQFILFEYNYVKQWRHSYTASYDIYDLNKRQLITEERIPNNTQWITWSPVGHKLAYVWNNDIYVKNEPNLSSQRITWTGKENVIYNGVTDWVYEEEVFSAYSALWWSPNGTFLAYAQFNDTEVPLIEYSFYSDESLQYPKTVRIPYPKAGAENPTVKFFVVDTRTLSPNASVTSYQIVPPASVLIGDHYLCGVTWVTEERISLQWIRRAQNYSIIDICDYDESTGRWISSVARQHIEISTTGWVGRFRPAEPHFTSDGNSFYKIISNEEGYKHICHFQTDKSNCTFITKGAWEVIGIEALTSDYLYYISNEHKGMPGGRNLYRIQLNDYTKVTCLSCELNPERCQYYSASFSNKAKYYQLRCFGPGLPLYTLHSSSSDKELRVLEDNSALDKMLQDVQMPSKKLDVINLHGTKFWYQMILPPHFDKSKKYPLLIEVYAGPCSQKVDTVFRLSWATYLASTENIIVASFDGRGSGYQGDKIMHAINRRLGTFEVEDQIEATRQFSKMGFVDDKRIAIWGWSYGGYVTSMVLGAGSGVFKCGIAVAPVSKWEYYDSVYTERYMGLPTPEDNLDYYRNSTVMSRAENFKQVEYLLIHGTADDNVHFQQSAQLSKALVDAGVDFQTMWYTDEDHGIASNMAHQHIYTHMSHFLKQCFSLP

Compound | DPP-IV inhibiting activity (qualitative)
VTKCCTE | DPP-IV inhibiting compounds

Same assay, conditions: signal relative to the highest signal obtained in this test (LPL and IPI)

RELATIVE POTENCY [%] | Compound
6 | HPIK
98 | KVLP
15 | LPVP
23 | MPLW

More lines, now with the values behind:

Compound | RELATIVE POTENCY [%]
CC[C@H](C)[C@H](N)C(=O)N1CCC[C@H]1C(=O)N[C@H](C(=O)O)[C@@H](C)CC [IPI] | 100
GPFP | 34
LPLP | 11
PFP | 20
PLLQ | 37

Target: T1, DPP-IV
Assay: In vitro DPP-IV inhibition assay with Gly-Pro-p-nitroanilide substrate (absorption at 385 nm)
Assay type: biochemical
Design: purchased Sigma D-7052
Conditions: unhydrolysed control proteins, DH 0%
Experimental: DPP-IV activity can be determined by measuring the increase in absorption at 385 nm using Gly-Pro-p-nitroanilide (Sigma G-0513) as DPP-IV substrate. A decrease in DPP-IV activity is a measure for the inhibition.
13.152 mg Gly-Pro-p-nitroanilide (substrate; Sigma G-0513) was dissolved in 1 ml Tris buffer, pH 8.0. DPP-IV (Sigma D-7052) was diluted with Tris buffer, pH 8.0 to 1.1 Unit/ml. The substrate was diluted 50-fold with Tris buffer, pH 8.0. The samples were prepared by diluting a protein hydrolysate to a 1 wt. % protein solution in Tris buffer, pH 8.0. The samples were then serially diluted to obtain a range of sample concentrations. 50 μl of the different serially diluted samples and 50 μl of the diluted substrate were then pipetted in wells of a microtiter plate with 96 wells. Subsequently, 100 μl of the diluted enzyme was pipetted in each well of a plate with 96 wells. Then the increase in absorption at 385 nm was determined and DPP-IV activities at different concentrations of a variety of protein hydrolysates were determined, from which the IC50 (i.e. the concentration of inhibitor (particular protein hydrolysate) that inhibits 50% of the DPP-IV activity) could be derived. […] The degree of hydrolysis was determined using the o-phtaldialdehyde method, which is well known in the art.

inhibition of the enzyme DPP-IV | Compound
did not inhibit | Sodium caseinate
